Results: the RNAGym collection of RNA variant scans (doi:10.1073/pnas.2313332121)

B1: TPR t1 (parent)
chain: GACCAAUCUGCCCUCAGAGCUCGAGAACAUCUUCGGAUGCAGAGGAGGCAGGCUUCGGUGGCGCGAUAGCGCCAACGUCCUCAACCUCCAAUGCAUCCCACCACAUGAUGAUGCCUGAAGAGCCUUGGUUUUUUG

Variants of: B1
Experiment: polymerase ribozyme fitness, log enrichment relative to wild type (log ratio); higher = more active; in vitro selection for triplet polymerase activity
Outline: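 Mutant libraries of each subunit of a heterodimeric triplet polymerase ribozyme were built by PCR and transcribed. Each library went through one round of in vitro selection in triplicate: annealing with biotinylated primer, partner subunit and triplets, frozen incubation at −7 °C, gel excision of extended constructs, streptavidin-bead capture and RT-PCR. Input and output libraries were Illumina-sequenced; only genotypes with ≥10 input reads and ≥1 read per output were kept. Fitness is log2(genotype enrichment/wild-type enrichment), using inverse-variance-weighted replicate averages.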

| Variant | polymerase ribozyme fitness (log ratio) |
| --- | --- |
| GUCCAAUCUGCCCUCAGAGCUCGAGAACAUCUUCGGAUGGAGAGGAGGCAGGGUUCGGUGGCGCGAUAGCGGCAACGUCCUCAACCUCCAAUGCAUCCCACCACAUGAUGAUGCCUGAAGAGCCUUGGUUUUUUG [A2U C40G C53G C72G] | -2.9 |
| GUCCAAUCUGCCCUCAGAGCUCGAGAACAUCUUCGGAUGCAGAGGAGGCAGGCUUAGGUGGCGCGAUAGCGCCAACGUCCUCAACCUCCAAUGCAUCCCACCACAAGAUGAUGCGUGAAGAGCCUUGGUUUUUUG [A2U C56A U106A C115G] | -4.51 |
| GUCCAAUCUGCCCUCAGAGCUCGAGAACAUCUUCGGAUGCAGAGGAGGCAGGCUUCGGUGGCGCGAUAGGGCCAACGUCCUCAACCUCCAAUGCAUCCCACCACAUGAUGAUGCCUGAAGAGCCUUGGUUUUUUG [A2U C70G] | -5.04 |
| GUCCAAUCUGCCCUCAGAGCUCGAGAACAUCUUCGGAUGCAGAGGAGGCAGGCUUCGGUGGCGCGAUAGCGCCAACGUCCUCAACCUCCAAUGCAUCCCACCAUAUGAUGAUGCCUGAAGAGCCUUGGUUUUUUG [A2U C104U] | -1.41 |
| GUCCAAUCUGCCCUCAGAGCUCGAGAACAUCUUCGGAUGCAGAGGAGGCAGGCUUCGGUGGCGCGAUAGCGCUAACGUCCUCAACCUCCAAUGCAUCCCACCACAUGAUGAUGCCUGAAGAGCCUUGGUUUUUUG [A2U C73U] | -2.69 |
| GUCCAAUCUGCCCUCAGAGCUCGAGAACAUCUUCGGAUGCAGAGGAGGUAGGCUUCGGUGGCGCGAUAGCGCCAACGUCCUCAACCUCCAAUGCAUCCCACCACAUGAUGAUGCCUGAAGAGCCUUGGUUUUUUG [A2U C49U] | -3.77 |
| GUCCAAUCUGCCCUCAGAGCUCGAGAACAUCUUCGGAUGCAGAGGAGGCAGGCUUCGGUGGCGCGAUAGCGCCAACGUCCUCAACCUCCAAUGUAUCCCACCACAUGAUGAUGCCUGAAGAGCCUUGGUUUUUUG [A2U C94U] | -3.62 |
| GUCCAAUCUGCCCUCAGAGCUCGAGAACAUCUUCGGAUGCAGAGGAGGCAGGCUUCGGUGGCGUGAUAGCGCCAACGUCCUCGACCUCCAAUGCAUCCCACCACAUGAUGCUGCCUGAAGAGCCUUGGUUUUUUG [A2U C64U A83G A111C] | -4.94 |
| GUCCAAUCUGCCCUCAGAGUUCGAGAACAUCUUCGGAUGCAGAGGAGGCAGGCUUCGGUGGCCCGAUAGCGCCAACGUCCUCAACCUCAAAUGCAUCCCACCACAUGAUGCUGCCUGAAGAGACUUGGUUUUUUG [A2U C20U G63C C89A A111C C123A] | -4.79 |
| GUCCAAUCUGCCCUCAGAGCUCGAGAAUAUCUUCGGAUGCAGAGGAGGAAGGCUUCGGUGGCGCGAUAGCGCCAACGUCCUCAACCUCCAAUGCAUCCCAGCACAAGAUGAUGCCUGAAGAGCCUUGGUUUUUUG [A2U C28U C49A C101G U106A] | -4.56 |
| GUCCAAUCUGCCCUCAGAGCUCGAGAACAUCUUCGGAUGCAGAGGAGGCAGGCUUCGGUGGCGUGAUAGCGCCAACGUCCUCAACCUCCAAUGCAUCCCACCACAUGAUGAUGCGUGAAGAGCUUUGGUUUUUUG [A2U C64U C115G C124U] | -4.43 |
| GUCCAAUCUUCCCUCAGGGCUCGAGAACAUCUGCGGAUGCAGAGGAGGCAGGCUUCGGUAGCGCGAUAGCGCCAACGUCCUCAACCUCCAAUGCAUCCCACCACAUGAUGAUGCCUGAAGAGCAUUGGUUUUUUG [A2U G10U A18G U33G G60A C124A] | -6.77 |
| GUCCAAUCUGCCCUCAGAGCUCGAGAACAUCUUCGGAUGCAGAGGAGGCAGGCUUCGGUGGCGCGAUAGCGGCAACGUCCUCAACCUCCAAUGCAUCCCACCACAUGAUGAUGCCUGAAGAGCCUUGGUUUUUUG [A2U C72G] | -1.72 |
| GUCCAAUCUGCCCUCAGAGCUCGAGAACAUCUUCGGAUGCAGAGGAGGCAGGCUUCGGUGGCGCGAUAGCGUCAACGUCCUCAACCUCCAAUGCAUCCCACCACAUGAUGAUGCCUGAAGAGCCUUGGUUUUUUG [A2U C72U] | -2.02 |
| GUCCAAUCUGCCCUCAGAGCUCGAGAACAUCUUCGGAUGCAGAGGAGGCAGGCUUCGGUGGCGCGAUAGCGCCAACGUCCUCAACCUCGAAUGCAUCCCACCACAUGAUGAUGCCUGAAGAGCCUUGGUUUUUUG [A2U C89G] | -5.02 |
| GUCCAAUCUGCCCUCAGAGCUCGAGAACAUCUUCGGAUGCAGAGGAGGCAGGCUUCGGUGGCGCGAUAGCGCCAACGUCCUCAACCUCCAAUGCAUCCCACCACAUGAUGAUGCAUGAAGAGCCUUGGUUUUUUG [A2U C115A] | -2.22 |
| GUCCAAUCUGCCCUCAGAGCUCGAGAACAUCUUCGGAUGCAGAGGAGGCAGGCUUCGGUGGCGCGAUAGCGCCAACGUCCUCAACCUGCAAUGCAUCCCACCACAUGAUGAUGCCUGAAGAGCCUUGGUUUUUUG [A2U C88G] | -3.37 |
| GUCCAAUCUGCCCUCAGAGCUCGAGAACAUCUUAGGAUGCAGAGGAGGCAGGCUUCGGUAGCGCGAUAGCGCCAACGUCCUCAACCUCCAAUGCAUCCCACCACAUGAUGAUGCCUGAAUAGCCAUGGUUUAUUG [A2U C34A G60A G120U U125A U132A] | -3.85 |
| GUCCAAUCUGCCCUACAAGCUCGAGAACAUCUUCGGAUGCAGAGGAGGCAGGCUUCGGUGGCGCGAUAGCGACAACGUCCUCAAGCUCCAAUGCAUCCCACCACAUGAUGAUGCCUGUAGAGCGUUGGUUUUUUG [A2U C15A A16C G17A C72A C85G A118U C124G] | -2.91 |
| GUCCAAUCUGCCCUCAGAGCUCGAGAACAUCUUCGGAUGCAGAGGAGGCAGGCUUCGGUGGCGCGAUAGCGACAACGUCCUCUACCUCCAAUGCAUCCCACCACAUGAUGAUGCCUGAAGAGGCUAGGUUUUUUG [A2U C72A A83U C123G U126A] | -0.343 |
| GUCCAAUCUGCCCUCAGAGCUCGAGAACAUCUUCGGAUGCAGAGGAGGCAGGCUUCGGUGGCGUGAUAGCGCCAACGUCCUCAACCUCGAAUGCAUCCCACCACAUGAUGAUGCCUGAAGAGCCUUGGUUUUUUG [A2U C64U C89G] | -5.12 |
